From paper PMC4496268

Biological target: syntaxin-1, endogenous in cultured mouse neurons (mouse (endogenous in cultured neurons of Syt1 KO mice)) (UniProt O35526)
Test: co-IP

Chain of UniProt O35526 (O35526 whole entry): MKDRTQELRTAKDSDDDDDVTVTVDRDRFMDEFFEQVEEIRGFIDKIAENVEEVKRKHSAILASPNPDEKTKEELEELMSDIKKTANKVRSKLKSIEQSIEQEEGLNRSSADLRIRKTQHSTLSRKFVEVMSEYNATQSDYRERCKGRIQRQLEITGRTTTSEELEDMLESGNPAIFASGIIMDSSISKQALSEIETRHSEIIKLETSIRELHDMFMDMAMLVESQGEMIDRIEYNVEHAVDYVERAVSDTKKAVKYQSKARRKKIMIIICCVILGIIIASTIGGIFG

Question: Which decrease of co-immunoprecipitated Syt1 against WT Syt1 does the source give for “Synaptotagmin-1 R322E K325E mutant, expressed in Syt1 KO neurons (from UniProt P21707 1-421) (natural protein)” here?
Answer: The decrease of co-immunoprecipitated Syt1 against WT Syt1 was 62%.
